Substitutions are numbered along the chain they refer to.
T1: human GIP receptor (human, UniProt P48546 22-466)
T1 sequence (looked up): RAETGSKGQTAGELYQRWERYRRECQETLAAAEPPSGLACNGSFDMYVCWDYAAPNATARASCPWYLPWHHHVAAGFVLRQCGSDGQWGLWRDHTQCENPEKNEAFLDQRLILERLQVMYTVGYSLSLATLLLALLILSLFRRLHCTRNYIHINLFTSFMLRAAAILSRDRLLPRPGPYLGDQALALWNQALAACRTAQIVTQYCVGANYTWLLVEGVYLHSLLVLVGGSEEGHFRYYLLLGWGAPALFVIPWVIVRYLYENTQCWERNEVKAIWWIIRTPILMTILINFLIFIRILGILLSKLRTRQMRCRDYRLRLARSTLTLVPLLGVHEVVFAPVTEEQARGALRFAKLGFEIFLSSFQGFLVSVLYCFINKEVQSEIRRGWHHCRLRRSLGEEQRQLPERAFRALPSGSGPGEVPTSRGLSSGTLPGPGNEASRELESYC

B1: Example 135 (peptide)
peptide: YXEGTXTSDXSIXLDXKAQXEFIXXLIEGGPSSGAPPPSK
modifications: Aib2, αMeF(2F)6, 4Pal10, αMeL13, Orn16, Aib20, D-Glu24, αMeY25, K17 and K40: K(AEEA2-(γ-Glu)-(4-(4-tert-butylphenyl)butanoyl)), C-terminal NH2
B2: Example 141 (peptide)
peptide: B1 peptide
modifications: Aib2, αMeF(2F)6, 4Pal10, αMeL13, Orn16, Aib20, D-Glu24, αMeY25, K17 and K40: K(AEEA2-(γ-Glu)-CO-(CH2)10-CH3), C-terminal NH2
B3: Example 128 (peptide)
peptide: YXEGTXTSDXSIXLDXKAQXEFIKXLIEGGPSSGAPPPS
modifications: Aib2, αMeF(2F)6, 4Pal10, αMeL13, Orn16, Aib20, αMeY25, K17 and K24: K(AEEA2-(γ-Glu)-(10-(4-carboxyphenoxy)decanoyl)), C-terminal NH2
B4: Example 154 (peptide)
peptide: B3 peptide with K24X, P31K, S39X
modifications: Aib2, αMeF(2F)6, 4Pal10, αMeL13, Orn16, Aib20, D-Glu24, αMeY25, Orn39, K17 and K31: K(AEEA2-(γ-Glu)-CO-(CH2)12-CO2H), C-terminal NH2
B5: Example 16 (peptide)
peptide: B3 peptide
modifications: Aib2, αMeF(2F)6, 4Pal10, αMeL13, Orn16, Aib20, αMeY25, K17 and K24: K(AEEA2-(γ-Glu)-CO-(CH2)12-CO2H), C-terminal NH2
B6: Example 138 (peptide)
peptide: B3 peptide
modifications: Aib2, αMeF(2F)6, 4Pal10, αMeL13, Orn16, Aib20, αMeY25, K17 and K24: K(AEEA2-(γ-Glu)-CO-(CH2)10-CH3), C-terminal NH2
B7: Example 133 (peptide)
peptide: B3 peptide with K24X, E28K
modifications: Aib2, αMeF(2F)6, 4Pal10, αMeL13, Orn16, Aib20, D-Glu24, αMeY25, K17 and K28: K(AEEA2-(γ-Glu)-(4-(4-tert-butylphenyl)butanoyl)), C-terminal NH2
B8: Example 17 (peptide)
peptide: B3 peptide with K24X, E28K
modifications: Aib2, αMeF(2F)6, 4Pal10, αMeL13, Orn16, Aib20, D-Glu24, αMeY25, K17 and K28: K(AEEA2-(γ-Glu)-CO-(CH2)12-CO2H), C-terminal NH2
B9: Example 152 (peptide)
peptide: B3 peptide with K24X, G30X, P31K
modifications: Aib2, αMeF(2F)6, 4Pal10, αMeL13, Orn16, Aib20, D-Glu24, αMeY25, Orn30, K17 and K31: K(AEEA2-(γ-Glu)-CO-(CH2)12-CO2H), C-terminal NH2
B10: Example 150 (peptide)
peptide: B3 peptide with E21X, K24X, P31K
modifications: Aib2, αMeF(2F)6, 4Pal10, αMeL13, Orn16, Aib20, Orn21, D-Glu24, αMeY25, K17 and K31: K(AEEA2-(γ-Glu)-CO-(CH2)12-CO2H), C-terminal NH2
B11: Example 132 (peptide)
peptide: B3 peptide
modifications: Aib2, αMeF(2F)6, 4Pal10, αMeL13, Orn16, Aib20, αMeY25, K17 and K24: K(AEEA2-(γ-Glu)-(4-(4-tert-butylphenyl)butanoyl)), C-terminal NH2
B12: Example 13 (peptide)
peptide: B3 peptide with K24X, P31K
modifications: Aib2, αMeF(2F)6, 4Pal10, αMeL13, Orn16, Aib20, D-Glu24, αMeY25, K17 and K31: K(AEEA-(γ-Glu)-CO-(CH2)14-CH3), C-terminal NH2
B13: Example 15 (peptide)
peptide: B3 peptide with E21K, K24X
modifications: Aib2, αMeF(2F)6, 4Pal10, αMeL13, Orn16, Aib20, D-Glu24, αMeY25, K17 and K21: K(AEEA2-(γ-Glu)-CO-(CH2)12-CO2H), C-terminal NH2
B14: Example 140 (peptide)
peptide: B3 peptide with K24X, G30K
modifications: Aib2, αMeF(2F)6, 4Pal10, αMeL13, Orn16, Aib20, D-Glu24, αMeY25, K17 and K30: K(AEEA2-(γ-Glu)-CO-(CH2)10-CH3), C-terminal NH2
B15: Example 130 (peptide)
peptide: B3 peptide with X10K, K24X
modifications: Aib2, αMeF(2F)6, αMeL13, Orn16, Aib20, D-Glu24, αMeY25, K10 and K17: K(AEEA2-(γ-Glu)-(4-(4-tert-butylphenyl)butanoyl)), C-terminal NH2
B16: Example 18 (peptide)
peptide: B3 peptide with K24X, G30K
modifications: Aib2, αMeF(2F)6, 4Pal10, αMeL13, Orn16, Aib20, D-Glu24, αMeY25, K17 and K30: K(AEEA2-(γ-Glu)-CO-(CH2)12-CO2H), C-terminal NH2
B17: Example 14 (peptide)
peptide: B3 peptide with K24X, P31K
modifications: Aib2, αMeF(2F)6, 4Pal10, αMeL13, Orn16, Aib20, D-Glu24, αMeY25, K17 and K31: K(AEEA-(γ-Glu)-CO-(CH2)10-CH3), C-terminal NH2
B18: Example 134 (peptide)
peptide: B3 peptide with K24X, G30K
modifications: Aib2, αMeF(2F)6, 4Pal10, αMeL13, Orn16, Aib20, D-Glu24, αMeY25, K17 and K30: K(AEEA2-(γ-Glu)-(4-(4-tert-butylphenyl)butanoyl)), C-terminal NH2
B19: Example 143 (peptide)
peptide: B3 peptide with K24X, P31K
modifications: Aib2, αMeF(2F)6, 2FA10, αMeL13, Orn16, Aib20, D-Glu24, αMeY25, K17 and K31: K(AEEA2-(γ-Glu)-CO-(CH2)12-CO2H), C-terminal NH2
B20: Example 137 (peptide)
peptide: B3 peptide with E21K, K24X
modifications: Aib2, αMeF(2F)6, 4Pal10, αMeL13, Orn16, Aib20, D-Glu24, αMeY25, K17 and K21: K(AEEA2-(γ-Glu)-CO-(CH2)10-CH3), C-terminal NH2
B21: Example 131 (peptide)
peptide: B3 peptide with E21K, K24X
modifications: Aib2, αMeF(2F)6, 4Pal10, αMeL13, Orn16, Aib20, D-Glu24, αMeY25, K17 and K21: K(AEEA2-(γ-Glu)-(4-(4-tert-butylphenyl)butanoyl)), C-terminal NH2
B22: Example 144 (peptide)
peptide: B3 peptide with K24X, P31K
modifications: Aib2, αMeF(2F)6, 4TAA10, αMeL13, Orn16, Aib20, D-Glu24, αMeY25, K17 and K31: K(AEEA2-(γ-Glu)-CO-(CH2)12-CO2H), C-terminal NH2
B23: Example 151 (peptide)
peptide: B3 peptide with K24X, E28X, P31K
modifications: Aib2, αMeF(2F)6, 4Pal10, αMeL13, Orn16, Aib20, D-Glu24, αMeY25, Orn28, K17 and K31: K(AEEA2-(γ-Glu)-CO-(CH2)12-CO2H), C-terminal NH2
B24: Example 148 (peptide)
peptide: B3 peptide with F22X, K24X, P31K
modifications: Aib2, αMeF(2F)6, 4Pal10, αMeL13, Orn16, Aib20, ChA22, D-Glu24, αMeY25, K17 and K31: K(AEEA2-(γ-Glu)-CO-(CH2)12-CO2H), C-terminal NH2
B25: Example 149 (peptide)
peptide: B3 peptide with K24X, P31K
modifications: Aib2, αMeF(2F)6, 4Pal10, αMeL13, Orn16, Orn20, D-Glu24, αMeY25, K17 and K31: K(AEEA2-(γ-Glu)-CO-(CH2)12-CO2H), C-terminal NH2
B26: Example 129 (peptide)
peptide: B3 peptide with K24X, E28K
modifications: Aib2, αMeF(2F)6, 4Pal10, αMeL13, Orn16, Aib20, D-Glu24, αMeY25, K17 and K28: K(AEEA2-(γ-Glu)-(10-(4-carboxyphenoxy)decanoyl)), C-terminal NH2
B27: Example 139 (peptide)
peptide: B3 peptide with K24X, E28K
modifications: Aib2, αMeF(2F)6, 4Pal10, αMeL13, Orn16, Aib20, D-Glu24, αMeY25, K17 and K28: K(AEEA2-(γ-Glu)-CO-(CH2)10-CH3), C-terminal NH2
B28: Example 147 (peptide)
peptide: B3 peptide with F22X, K24X, P31K
modifications: Aib2, αMeF(2F)6, 4Pal10, αMeL13, Orn16, Aib20, Bzt22, D-Glu24, αMeY25, K17 and K31: K(AEEA2-(γ-Glu)-CO-(CH2)12-CO2H), C-terminal NH2
B29: Example 146 (peptide)
peptide: B3 peptide with K24X, P31K
modifications: Aib2, αMeF(2F)6, 3TA10, αMeL13, Orn16, Aib20, D-Glu24, αMeY25, K17 and K31: K(AEEA2-(γ-Glu)-CO-(CH2)12-CO2H), C-terminal NH2
B30: Example 136 (peptide)
peptide: B3 peptide with X10K, K24X
modifications: Aib2, αMeF(2F)6, αMeL13, Orn16, Aib20, D-Glu24, αMeY25, K10 and K17: K(AEEA2-(γ-Glu)-CO-(CH2)10-CH3), C-terminal NH2
B31: Example 145 (peptide)
peptide: B3 peptide with K24X, P31K
modifications: Aib2, αMeF(2F)6, 2TA10, αMeL13, Orn16, Aib20, D-Glu24, αMeY25, K17 and K31: K(AEEA2-(γ-Glu)-CO-(CH2)12-CO2H), C-terminal NH2

Legend:
Test in all cases: cell-based or functional assay
[1] = molecular target: human glucagon receptor (human, UniProt P47871 26-477)
[2] = molecular target: human GLP-1 receptor (human, UniProt P43220 24-463)
[3] = molecular target: T1, human GIP receptor

Row | Binder | EC50, cAMP [1] [nM] | EC50, cAMP [2] [nM] | EC50, cAMP [3] [nM] | Emax, cAMP [3] [%] | Emax, cAMP [2] [%]
1 | B1 | > 9950 | 0.271 | 0.0184 | 92.3 | –
2 | B2 | > 9950 | 0.0693 | 0.00723 | 98.8 | –
3 | B3 | > 9950 | 0.293 | 0.0232 | – | –
4 | B4 | > 9950 | 1.69 | 0.0299 | 96.6 | –
5 | B5 | > 9950 | 0.245 | 0.0113 | – | –
6 | B6 | > 9950 | 0.267 | 0.0197 | – | –
7 | B7 | > 9950 | 0.258 | 0.018 | – | –
8 | B8 | > 9950 | 1.57 | 0.0129 | – | –
9 | B9 | > 9950 | 3.91 | 0.0416 | 97.9 | –
10 | B10 | > 9950 | 0.455 | 0.0268 | – | –
11 | B11 | > 9950 | 0.182 | 0.0208 | – | –
12 | B12 | > 9950 | 0.0214 | 0.00597 | – | –
13 | B13 | > 9950 | 0.995 | 0.0133 | – | –
14 | B14 | > 9950 | 0.131 | 0.0121 | 98.5 | –
15 | B15 | > 9950 | 0.204 | 0.0266 | 94.7 | 100
16 | B16 | > 9950 | 5.06 | 0.0226 | 97.1 | –

Row | Binder | EC50, cAMP [1] [nM] | EC50, cAMP [2] [nM] | EC50, cAMP [3] [nM] | Emax, cAMP [3] [%] | Emax, cAMP [2] [%]
17 | B17 | > 9950 | 0.0884 | 0.00802 | – | –
18 | B18 | > 9950 | 0.577 | 0.0238 | – | –
19 | B19 | > 9950 | 0.512 | 0.022 | – | –
20 | B20 | > 9950 | 0.134 | 0.0116 | – | –
21 | B21 | > 9950 | 0.19 | 0.0156 | – | –
22 | B22 | > 9950 | 3.47 | 0.0193 | 90 | –
23 | B23 | > 9950 | 0.546 | 0.0197 | – | –
24 | B24 | > 9950 | 1.77 | 0.0209 | – | 94.5
25 | B25 | > 9950 | 1.5 | 0.0791 | – | –
26 | B26 | > 9950 | 1.28 | 0.0248 | – | –
27 | B27 | > 9950 | 0.141 | 0.0108 | – | 111
28 | B28 | > 9950 | 0.338 | 0.0229 | – | 93.5
29 | B29 | > 9950 | 0.688 | 0.0198 | 76.5 | –
30 | B30 | > 9950 | 0.0918 | 0.0069 | 97.4 | –
31 | B31 | > 9950 | 0.555 | 0.0286 | 74.8 | –

Reference: patent US20230265151A1, “GIP/GLP1 CO-AGONIST COMPOUNDS” (priority 2020, published 2023)
